In patent US12559863B2, “Macrocyclic modulators of disease associated protein misfolding and aggregation” (RESQ BIOTECH, priority 2017, dated 2026):

Experiments:
SOD1(A4V) [1] = molecular target: T1, SOD1(A4V) (Homo sapiens, UniProt P00441, A5V); experiment: Circular dichroism of isolated SOD1(A4V) with cyclic peptide; type: biochemical; conditions: 40 μM SOD1(A4V), 25° C., 90 d
T1 construct: polyHis; made in house; host or cells: E. coli Origami 2(DE3)
Procedure: (§1) SOD1 or mutants thereof were overexpressed from the appropriate pET-SOD1 or PASK-SOD1 vectors in E. coli Origami 2(DE3) cells in LB medium containing 50 μg/mL kanamycin (for pET-SOD1) or 100 μg/mL ampicillin (for pASK-SOD1), 200 μM CuCl2, and 200 μM ZnCl2 by the addition of 0.01 mM IPTG (for pET-SOD1) or 0.2 μg/mL anhydrotetracycline (aTc) (for pASK-SOD1), either at 37° C. for 2-3 h or at 18° C. for about 16 h. Origami 2(DE3) cells were utilized in order to provide an oxidizing cytoplasmic environment in order to promote correct formation of disulfide bonds, which are required for proper SOD1 folding and function. Under these conditions, bacterially produced SOD1 is produced in dimeric and enzymatically active form, while it simultaneously co-exists with misfolded, soluble and insoluble SOD1 oligomeric/aggregated species (FIG. 3C). […]
Appropriate amounts of synthetic cyclic peptides were added to either 40 μM SOD1(A4V) or 50 μM Aβ solutions at the desired cyclic peptide:target protein molar ratio. SOD1(A4V) structural changes were monitored for 90 d at 25° C., under quiescent conditions. Aβ structural changes were monitored for 30 d at 33° C. under quiescent conditions. CD spectra in the range 190-260 nm were recorded on a JASCO J-715 spectropolarimeter (Jasco Co., Japan) using quartz cuvettes with 1 mm path length. […]

SOD1(A4V) [2] = molecular target: T1, SOD1(A4V); experiment: Dynamic light scattering of SOD1(A4V) with cyclic peptide; type: biochemical; conditions: room temperature, 60 d
Procedure: as §1, with “3C). Thus, the acquired protein is found in a state that resembles the conditions encountered in human cells under stressful or pathogenic conditions. The appearance of misfolded SOD1 oligomers/aggregates is enhanced with increasing incubation temperatures.” for “3C).”
The sizes of the SOD1 particles were measured using a Zetasizer NanoZS90 (Malvern) instrument. […]

[3] = tested on: HEK293 cells transiently expressing SOD1(A4V)-GFP; experiment: SOD1 aggregation and viability measurements in HEK293 cells; type: cell-based, human; conditions: 5 μM SOD1C5-4; compared to untreated cells
Procedure: Human embryonic kidney (HEK) 293 cells were transfected using a Nucleofector (Amaxa) following the manufacturer's protocol. 6 ug DNA (SOD1 or SOD1(A4V) cloned into the pEGFP-N3 plasmid vector) were used per 2×10^6 cells and 5 μM synthetic SOD1C5-4 was added, where appropriate, before plating. Transfected cells were sorted 18 h later on a FACSAria to isolate GFP-positive clones. […] Collected cells were plated onto a 24-well plate at a density of 50,000 cells/well. Microscopy analysis was performed under an inverted microscope on day 1 and day 5 in culture after sorting. Cell counts are the average number of viable GFP-fluorescing cells of two areas per triplicate of wells of 24-well plates (magnification 20×). Cell counts are presented as percentage of viability of SOD1-overxoressing cell. As aggregate-positive cells are counted the fluorescing inclusion body-positive cells. Again, two areas per triplicate of wells of 24-well plate are averaged (magnification 20×). Aggregate-positive cells are presented as percentage of the total viable GFP-fluorescing cells.

SOD1(A4V) [4] = molecular target: T1, SOD1(A4V); experiment: Thioflavin T staining of SOD1(A4V); type: biochemical; conditions: 90 d at 25° C.
Procedure: as §1, with “3C). Thus, the acquired protein is found in a state that resembles the conditions encountered in human cells under stressful or pathogenic conditions.” for “3C).”
40 μM SOD1(A4V) solutions, aged for 90 d at 25° C., with or without the selected synthetic peptides, were diluted to 10 μM with PBS. […] The mixture was agitated adequately by pipetting and immediately thereafter, fluorescence was monitored with excitation at 440 nm (EM slit=2.5 nm, PMT Voltage 700 V, response 0.4 s) using a HITACHI F-2500 (Japan) spectrofluorometer.

T1 sequence (P00441 whole entry A5V): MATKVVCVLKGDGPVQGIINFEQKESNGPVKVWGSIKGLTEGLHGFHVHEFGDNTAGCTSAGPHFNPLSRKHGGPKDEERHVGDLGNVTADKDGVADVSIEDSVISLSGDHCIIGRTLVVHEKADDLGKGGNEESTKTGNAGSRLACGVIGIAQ

time-dependent conformational transition indicative of SOD1(A4V) aggregation (SOD1(A4V) [1]): significantly delayed
interaction with SOD1(A4V) by CD spectroscopy (SOD1(A4V) [1]; 1:1 and 5:1 peptide:SOD1(A4V)): interacts with SOD1(A4V)
size of oligomeric/aggregated SOD1(A4V) species (DLS) (SOD1(A4V) [2]): markedly smaller sizes
formation of large, amyloid-like SOD1(A4V) aggregates by ThT staining (SOD1(A4V) [4]): dramatically decreased
Substance: cyclo-TWSVW (cyclic) [SOD1C5-4]
fluorescence of HEK293 cells expressing SOD1(A4V)-GFP [3]: higher fluorescence
inclusions comprising aggregated SOD1(A4V)-GFP [3]: fewer inclusions comprising aggregated SOD1(A4V)-GFP
viability of HEK293 cells expressing SOD1(A4V)-GFP [3]: higher viability
